Data on 7 molecules can be found in US20120122125A1 (AbbVie / Abbott, published 2012).

For assay [1], the target named is Chagas recombinant antigen FP6 (Trypanosoma cruzi). The assay can be described thus: SPR, BIAcore 2000; murine mAb captured on rabbit anti-mouse IgG, FP6 injected 0-200 nM. (Surface plasmon resonance follows binding to a sensor surface in real time, without labels.)
The target of assay [2] is T1, Chagas FRA antigen (Trypanosoma cruzi).
T1 construct: also called FRA-domain; recombinant FRA antigen
T1 chain: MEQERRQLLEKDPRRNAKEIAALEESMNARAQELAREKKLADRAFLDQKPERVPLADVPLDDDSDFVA
The assay can be described thus: SPR, BIAcore 2000; murine mAb captured on rabbit anti-mouse IgG, FRA injected 0-200 nM.

Assay [3] concerns the target T2, Chagas FP10 recombinant antigen (Trypanosoma cruzi).
T2 construct: also called T. cruzi antigen FP10
T2 chain: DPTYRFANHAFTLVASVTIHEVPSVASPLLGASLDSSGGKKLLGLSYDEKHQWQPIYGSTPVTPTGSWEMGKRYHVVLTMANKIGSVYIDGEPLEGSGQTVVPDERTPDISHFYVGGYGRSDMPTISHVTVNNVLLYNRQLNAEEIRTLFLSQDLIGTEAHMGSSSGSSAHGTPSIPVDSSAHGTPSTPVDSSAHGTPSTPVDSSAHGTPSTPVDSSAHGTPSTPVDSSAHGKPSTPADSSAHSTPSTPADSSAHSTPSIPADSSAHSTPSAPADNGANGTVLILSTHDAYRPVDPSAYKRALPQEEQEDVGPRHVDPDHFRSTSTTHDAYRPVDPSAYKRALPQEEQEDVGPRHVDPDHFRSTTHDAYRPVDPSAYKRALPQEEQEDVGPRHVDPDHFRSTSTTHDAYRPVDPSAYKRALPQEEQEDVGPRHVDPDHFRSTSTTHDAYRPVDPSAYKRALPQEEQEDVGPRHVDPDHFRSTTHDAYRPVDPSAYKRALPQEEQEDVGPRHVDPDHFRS
Kind of assay: SPR, BIAcore 2000; murine mAb captured on rabbit anti-mouse IgG, FP10 injected.

Assay [4] concerns the target T3, Chagas FP3 recombinant antigen (Trypanosoma cruzi).
T3 construct: also called T. cruzi antigen FP3; not shown: His6 tag at the amino end, from the pET vector
T3 chain: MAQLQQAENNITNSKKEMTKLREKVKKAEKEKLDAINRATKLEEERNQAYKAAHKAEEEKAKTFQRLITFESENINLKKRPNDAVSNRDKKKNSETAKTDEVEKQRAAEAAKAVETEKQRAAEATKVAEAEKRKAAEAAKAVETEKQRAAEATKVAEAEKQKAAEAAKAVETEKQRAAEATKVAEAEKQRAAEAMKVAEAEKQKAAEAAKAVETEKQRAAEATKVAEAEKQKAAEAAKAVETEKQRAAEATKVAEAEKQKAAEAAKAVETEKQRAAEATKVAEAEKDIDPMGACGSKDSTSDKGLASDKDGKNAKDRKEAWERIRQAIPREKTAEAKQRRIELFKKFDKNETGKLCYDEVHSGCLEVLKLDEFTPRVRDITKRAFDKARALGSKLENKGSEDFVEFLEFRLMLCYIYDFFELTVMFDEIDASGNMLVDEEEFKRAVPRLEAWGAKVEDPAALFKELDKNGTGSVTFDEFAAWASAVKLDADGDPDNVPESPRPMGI
The assay can be described thus: SPR, BIAcore 2000; murine mAb captured on rabbit anti-mouse IgG, FP3 injected.

Assay [5] deals with T3, Chagas FP3 recombinant antigen. Kind of assay: SPR, BIAcore 2000; His6-tagged FP3 captured on anti-His4, chimeric antibody injected 0-300 nM.
Assay [6] addresses T2, Chagas FP10 recombinant antigen. Kind of assay: SPR, BIAcore 2000; His6-tagged FP10 captured on anti-His4, chimeric antibody injected.
In assay [7] the target is T1, Chagas FRA antigen. Kind of assay: SPR, BIAcore 2000; murine mAb captured on rabbit anti-mouse IgG, FRA injected.
Assay [8] addresses T3, Chagas FP3 recombinant antigen. The assay can be described thus: SPR, BIAcore 2000; murine mAb captured on rabbit anti-mouse IgG, FP3 injected 0-200 nM.
Assay [9] deals with Chagas TcF recombinant antigen (Trypanosoma cruzi). The assay can be described thus: SPR, BIAcore 2000; murine mAb captured on rabbit anti-mouse IgG, TcF injected 0-200 nM.
Assay [10] has the same target. Kind of assay: SPR, BIAcore 2000; chimeric antibody captured on goat anti-human IgG Fc, TcF injected 0-100 nM.
In assay [11] the target is T4, Pep2 antigen (Trypanosoma cruzi).
T4 construct: The form of Pep2 coated in the anti-Pep2 microtiter EIA is not described; also called TcF Pep2 peptide
T4 peptide: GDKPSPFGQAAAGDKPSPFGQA
The assay can be described thus: SPR, BIACORE; chimeric antibody from transient COS 7L expression; the antigen is not given.

Assay [12] concerns the target T3, Chagas FP3 recombinant antigen. Kind of assay: SPR, BIAcore 2000; His6-tagged FP3 captured on anti-His4, chimeric antibody injected.
Assay [13] deals with T2, Chagas FP10 recombinant antigen. The assay can be described thus: SPR, BIAcore 2000; His6-tagged FP10 captured on anti-His4, chimeric antibody injected 0-300 nM.
Assay [14] has the same target. The assay can be described thus: SPR, BIAcore 2000; murine mAb captured on rabbit anti-mouse IgG, FP10 injected 0-200 nM.

B1: murine anti-Chagas monoclonal antibody 8-367-171 (FRA) (antibody, V domains shown)
VH: EVQLQQSGAELVKPGASVKLSCTASGFNIKDTYMHWVKQRPEQGLEWIGRIDPANGNTKYDPKFQGKATITTDTSSNTAYLQLSSLTSEDTAVYYCATSYYGNYVAYWGHGTLVTVSA
VL: DIQMDQSPSSLSASLGDTITITCHASQNINVWLSWYQQKPGNIPKLLIYKASNLHTGVPSRFSGSGSGTGFTLTISSLQPEDIATYYCQQGQSYPLTFGSGRKLEIK
notes: Mouse hybridoma mAb; captured by anti-mouse IgG
In general, Kd refers to the free concentration of one partner at which half of the binding sites on the other are occupied at equilibrium, for simple one-to-one binding. As a reminder, the koff is a measure of how fast the partners let go of each other. What is called kon is the rate constant with which the complex forms. Take B1: in assay [1], the Kd worked out at 5.2 nM, the koff came to 0.0079 s⁻¹ and the kon was found to be 1.5e+06 M⁻¹ s⁻¹. In [2], this molecule showed a Kd of 37 nM, a koff of 0.13 s⁻¹ and a kon of 3.6e+06 M⁻¹ s⁻¹. Also, the binding result in assay [3] was “no binding (tested: 0 to 200 nM antigen)”. For the same molecule, in assay [4], the binding result is “no binding (tested: 0 to 200 nM antigen)”.

B2: recombinant chimeric (mouse-human) anti-Chagas monoclonal antibody 12-392-150 (FP3) (antibody, V domains shown)
VH: DVQLVESGGGLVQPGGSRKLSCAASGFTFSVFGMHWVRQAPEKGLEWVAYISSGSTIIYYADTVKGRFTISRDNPKNTLFLQMTGLRSEDTAMYYCARPLYYDYDDYAMDYWGQGTSVTVSS
VL: YIVMSQSPSSLAVSAGEKVTMSCKSSQSLLNSRTRKNHLAWYQQKPGQSPKLLIYWASTRESGVPDRFTGSGSGTDFALTISSVQAEDLAVYFCKQSYNLYTFGAGTKLELK
notes: Mouse VH and VL of hybridoma HBFP3 joined to human IgG1 (z, non-a) and human kappa constant regions; the summary and the claims swap them; also called Chimeric Chagas Ab 12-392-150; Chagas FP3 12-392-150CHO2580-104
Consider B2, for which, in assay [5], the Kd amounted to 0.14 nM, the koff amounted to 0.00038 s⁻¹ and the kon came to 2.7e+06 M⁻¹ s⁻¹. Also, in [6], the binding result is reported as “no binding (tested: 0 to 300 nM antibody)”.

B3: murine anti-Chagas monoclonal antibody 12-392-150 (FP3) (antibody, V domains shown)
VH: DVQLVESGGGLVQPGGSRKLSCAASGFTFSVFGMHWVRQAPEKGLEWVAYISSGSTIIYYADTVKGRFTISRDNPKNTLFLQMTGLRSEDTAMYYCARPLYYDYDDYAMDYWGQGTSVTVSS
VL: YIVMSQSPSSLAVSAGEKVTMSCKSSQSLLNSRTRKNHLAWYQQKPGQSPKLLIYWASTRESGVPDRFTGSGSGTDFALTISSVQAEDLAVYFCKQSYNLYTFGAGTKLELK
notes: Mouse hybridoma mAb; captured by anti-mouse IgG; also called Murine Chagas Ab 12-392-150; hybrid 12-392
In the case of B3, the binding result in assay [7] is reported as “no binding (tested: 0 to 200 nM antigen)”. Also, in [3], the binding result is on record as “no binding (tested: 0 to 200 nM antigen)”. For the same molecule, in [8], the Kd came to 0.08 nM, the koff was found to be 5e-05 s⁻¹ and the kon was determined as 560000 M⁻¹ s⁻¹.

B4: murine anti-Chagas monoclonal antibody 9-638-132 (Pep2 epitope in TcF and FP6) (antibody, V domains shown)
VH: QVQLQQPGAELVRPGASVKLSCKASGYTFTSYWMNWVKLRPGQGLEWIGMIDPSDSETYYDQVFKDKATLTVDKSSSTAYMHLSSLTSEDSAVYYCARWITTDSYTMDYWGQGTSVTVSS
VL: DIVMSQSPSSLAVSAGEQVTMSCKSSQSLFNSRTRKNYLAWYQQKPGQSPKLLIYWASTRESGVPDRFTGSGSGTDFTLTISSVQAEDLAVYYCKQSYNLLTFGAGTKLELK
notes: Mouse hybridoma mAb; captured by anti-mouse IgG; also called Murine Chagas Ab 9-638-132; hybrid 9-638
Consider B4, for which the binding result in assay [7] is “no binding (tested: 0 to 200 nM antigen)”. In addition, the binding result in assay [4] was “no binding (tested: 0 to 200 nM antigen)”. Further, in [9], the Kd turned out to be 5.7 nM, the koff was 0.012 s⁻¹ and the kon was determined as 2.1e+06 M⁻¹ s⁻¹.

B5: recombinant chimeric (mouse-human) anti-Chagas monoclonal antibody 9-638-132 (Pep2 epitope in TcF and FP6) (antibody, V domains shown)
VH: QVQLQQPGAELVRPGASVKLSCKASGYTFTSYWMNWVKLRPGQGLEWIGMIDPSDSETYYDQVFKDKATLTVDKSSSTAYMHLSSLTSEDSAVYYCARWITTDSYTMDYWGQGTSVTVSS
VL: DIVMSQSPSSLAVSAGEQVTMSCKSSQSLFNSRTRKNYLAWYQQKPGQSPKLLIYWASTRESGVPDRFTGSGSGTDFTLTISSVQAEDLAVYYCKQSYNLLTFGAGTKLELK
notes: Mouse VH and VL of hybridoma HBPep2 joined to human IgG1 (z, non-a) and human kappa constant regions; the summary and the claims swap them; also called Chimeric Chagas Ab 9-638-132; Chagas Pep2 9-638-1928
With B5, in assay [10], the Kd stood at 4.1 nM, the koff is 0.017 s⁻¹ and the kon was 4e+06 M⁻¹ s⁻¹. In addition, the Kd in assay [11] was ~2.6 nM. Further, the binding result in assay [12] is given as “no binding (tested: 0 to 300 nM antibody)”. The binding result in assay [6] is “no binding (tested: 0 to 300 nM antibody)”.

B6: recombinant chimeric (mouse-human) anti-Chagas monoclonal antibody 10-745-140 (FP10) (antibody, V domains shown)
VH: QVQLQQPGAELVKPGASVKMSCKASGYTFTSYWVHWVKQRPGQGLEWIGVIDPSDSYTSYNQKFKGKATLTVDTSSSTAYMQLSSLTSEDSAVYYCTRHYDFDSWYFDVWGAGTTVTVSS
VL: DVVMTQTPLSLPVSLGDQASISCRSSQSLVHSNGNTYLHWYLQKPGQSPKLLIYKVSNRFSGVPDRFSGSGSGTDFTLKISRVEAEDLGVYFCSQSTHVPPTFGGGTKLEIK
notes: Mouse VH and VL of hybridoma HBFP10 joined to human IgG1 (z, non-a) and human kappa constant regions; the summary and the claims swap them; also called Chimeric Chagas Ab 10-745-140; Chagas FP10 10-745-3796
For the molecule B6, in assay [13], the Kd was determined as 2.9 nM, the koff is 0.00036 s⁻¹ and the kon was 120000 M⁻¹ s⁻¹. Also, in assay [12], the binding result is reported as “no binding (tested: 0 to 300 nM antibody)”.

B7: murine anti-Chagas monoclonal antibody 10-745-140 (FP10) (antibody, V domains shown)
VH: QVQLQQPGAELVKPGASVKMSCKASGYTFTSYWVHWVKQRPGQGLEWIGVIDPSDSYTSYNQKFKGKATLTVDTSSSTAYMQLSSLTSEDSAVYYCTRHYDFDSWYFDVWGAGTTVTVSS
VL: DVVMTQTPLSLPVSLGDQASISCRSSQSLVHSNGNTYLHWYLQKPGQSPKLLIYKVSNRFSGVPDRFSGSGSGTDFTLKISRVEAEDLGVYFCSQSTHVPPTFGGGTKLEIK
notes: Mouse hybridoma mAb; captured by anti-mouse IgG; also called Murine Chagas Ab 10-745-140; Chagas 10-745-140
B7: in [14], the Kd worked out at 1.9 nM, the koff came out at 0.00022 s⁻¹ and the kon worked out at 110000 M⁻¹ s⁻¹.
